Test results taken from patent US20230090014A1 (NANJING SANHOME PHARMACEUTICAL, published 2023).
Read-outs that look alike come from different tables or passages of the source.

Experiments:
[1] = target: T1, CD47 on the surface of CHO-K1-E5 cells (human, UniProt Q08722 19-323); test: FACS blocking assay on CHO-K1-E5 cells; blocked ligand SIRPα-Biotin, PE streptavidin
T1 construct: Full length CD47 expressed from pTargeT-CD47 in CHO-K1 cells; also called CD47 on cell surface; CHO-K1-hCD47

[2] = target: T2, Human CD47-His protein (human, UniProt Q08722 19-136); test: competition ELISA on coated CD47-His; blocked ligand SIRPα-biotin (2 µg/mL), SA-HRP, OD450
[3] = target: T1, CD47 on the surface of CHO-K1-E5 cells; test: FACS on CHO-K1-hCD47 cells, PE anti-human IgG
[4] = target: T2, Human CD47-His protein; test: ELISA on coated human CD47-His, anti-human IgG HRP, OD450
[5] = target: T2, Human CD47-His protein; test: ELISA on coated human CD47-His, HRP anti-human IgG, OD450
[6] = target: T3, CD47(19-136)-hFc (human, biotin-labelled in the Octet assay of Example 8 (sites not given)); test: BLI (Fortebio Octet RED96), biotinylated CD47-hFc on SA sensor, antibody in solution
T3 construct: tied by name; also called CD47-hFc; CD47-hFc-Biotin
T3 sequence (chain, as listed by the source limits assumed): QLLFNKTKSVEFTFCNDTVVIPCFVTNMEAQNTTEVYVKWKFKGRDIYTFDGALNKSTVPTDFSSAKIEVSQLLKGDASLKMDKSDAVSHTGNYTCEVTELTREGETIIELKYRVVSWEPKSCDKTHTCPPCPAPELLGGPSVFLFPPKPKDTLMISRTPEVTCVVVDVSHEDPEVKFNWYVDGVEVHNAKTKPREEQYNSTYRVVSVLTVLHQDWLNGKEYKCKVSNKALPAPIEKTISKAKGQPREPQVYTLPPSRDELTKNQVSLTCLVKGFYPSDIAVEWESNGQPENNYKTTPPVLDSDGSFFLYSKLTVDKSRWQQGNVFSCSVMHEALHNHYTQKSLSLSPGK

[7] = target: T4, hCD47 on the surface of Raji-hPD-L1 cells (human, UniProt Q08722 19-323); test: FACS on Raji-hPD-L1 cells (carry both hPD-L1 and hCD47), PE anti-human IgG Fc
T4 construct: whole, on cells

[8] = target: T1, CD47 on the surface of CHO-K1-E5 cells; test: cell based ELISA on fixed CHO-K1-E5 cells, anti-human IgG HRP, OD450
[9] = target: T4, hCD47 on the surface of Raji-hPD-L1 …; test: FACS on Raji-hPD-L1 cells (carry both hPD-L1 and hCD47), PE anti-human IgG Fc; remark: listed apart in the source
[10] = target: T1, CD47 on the surface of CHO-K1-E5 cells; test: FACS blocking assay on CHO-K1-hCD47 cells; blocked ligand SIRPα-biotin, PE-SA
[11] = target: T5, Cynomolgus CD47-His (cynomolgus, UniProt A0A2K5X523 19-139); test: ELISA on coated cynomolgus CD47-His, anti-human IgG HRP, OD450
T5 construct: Bought protein; also called monkey CD47

B1: Hu34-39-PE (antibody, IgG4, V domains shown)
VH: QVQLQESGPGLVKPSQTLSLTCKASGYTFTNYWITWVKQRPGQGLEWIGDITPGRGETNYNQKFKGRVTLTVDISASTAYMELSSLRSEDTAVYYCSRWGLRRGDYWGQGTSVTVSS
VL: EIVLTQSPGTLSLSPGERATLSCRASSSVSSSYLNWYQQKSGASPKLWIYSTSNLASGVPGRFSGSGSGTSYSLTISSVEAEDAATYYCQQYSGYPLTFGAGTKLEVK
notes: also called humanized anti-CD47 antibody Hu34-39-PE
- IC50 (read off the curve) [1]: ~1 nM
- IC50 (read off the curve) [2]: ~0.1 nmol/mL
- EC50 (read off the curve) [3]: ~1 nM
- EC50 (read off the curve) [4]: ~0.08 nM
- EC50 (read off the curve) [5]: ~0.06 nmol/mL
- Kd [6]: 0.113 nM
- koff [6]: 0.000758 s⁻¹
- kon [6]: 6.69e+06 M⁻¹ s⁻¹
- EC50 (read off the curve) [7]: ~0.1 nM
- EC50 (read off the curve) [8]: ~0.1 nM
- EC50 (read off the curve) [9]: ~0.2 nM
- IC50 (read off the curve) [10]: ~2 nM
- EC50 (read off the curve) [11]: ~0.1 nM
